Data reported in patent US20220031803A1, “ANTIBACTERIAL COMPOSITION COMPRISING MICROCIN S AND ANTIBIOTIC” (priority 2017, published 2022).

Test system: E. coli BL21 (DE3)+kan^R
Assay type: cell-based, Escherichia coli
Details: OD600 growth curve, 37° C., 96-well plates, duplicates averaged
Protocol: Growth was determined by measurement of the optical density at 600 nm (OD600) for 18 hours in 96-well plates at 37° C. The profile of the OD600 curves corresponds to the bacterial growth. […] Each sample was prepared in duplicate and the results averaged.
Antimicrobial activity was investigated in a 96-well plate by incubating E. coli BL21 (DE3)+kan^R bacteria either with microcin S alone or with microcin S and an antibiotic at 37° C. for 18 h.
To investigate whether microcin S in combination with antibiotics can likewise achieve synergistic effects on sensitive bacteria, growth profiles of the microcin S-sensitive indicator strain Escherichia coli BL21 (DE3) provided with a kanamycin resistance gene are recorded photometrically in a microtitre plate of 96-well format. […] After loading with the individual samples, the microtitre plate is incubated directly in a photometer (Epoch2 microplate reader from Biotek, USA) at 37° C. and 200 rpm (double-orbital, ∞) for 15 h. The optical density at 600 nm wavelength (OD600) is measured simultaneously for all wells at regular intervals. The graphic evaluation of the recorded measurement points is done subsequently with the aid of Microsoft Excel (Microsoft Corporation, USA). […]

B1: Microcin S: Antimicrobial polypeptide of E. coli G3/10 (SEQ ID NO: 7), prepared in a cell-free E. coli based in vitro expression system (protein, listed as Escherichia coli)
chain: NANSNYEGGGSRSRNTGARNSLGRNAPTHIYSDPSTVKCANAVFSGMVGGAIKGGPVGMTRGTIGGAVIGQCLSGGGNGNGGGNRAGSSNCSGSNVGGTCSR
Time of incubation after which the antibacterial effect is observed (collapse of bacterial growth): 5 h
